# In the domain aggregation screens of Martell et al. (2025):
# Assay: soluble fraction after stress (log2 fold change); higher = more stays soluble; pooled small domains, quantitative proteomics
# Conditions: stress: 50 degC
# How it was run: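 The stress applied to every library was 50°C. These custom libraries of small protein domains were pooled and measured at high throughput with quantitative proteomics as the read-out. Aggregation propensity is expressed as the base-two logarithm of the fold change in how much of each protein remains soluble. The higher the value, the more of that protein stays in solution.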
row,Sequence,soluble fraction (log2)
1,HMGSLVVVPNLVGQNYDEVKLSTKYSDFEIVQKNTEYSEAPAGQIIKQDPEAGTKVKKHSTINVTVSK,-0.354
2,HMRSYTPGSAFRLSSVPVYNAETGPSIGVRSGTYYIHSLPVSNGRIRMTNLISRVGKPGQVSFWVEISR,-2.45
3,HMSSIHQDAKQQLHEYIRTYIQPLMRAGKQVTVWDIIGHVTIRKPKLVQKIGTQQLINMVQDLLE,-0.213
4,HMATRAEQMAKTHQAILDTARELFLRNGYDATSTRDIANAIGITQPALYHHFKDKEVIFLAVI,-0.172
5,HMTFNEPSPKEIMDYSLSRGYKVDADAFIDFYRGKAKAYGKEGLWLDGRGRLVKDWRAKLRVVWFKDENKL,-1.22
6,HMELPADLATVLSVDDIRAIALAEVPGSTITGVELEREEGVLVYKVKFNDGSYKLYDANTGELV,0.174
7,HMETLETYTSRLRQLEDITNNFKGVDKSFAIQAGREIRVMVVPEQVSDADMILMARDISKAIEAELEYPGQ,-0.0847
8,HMADLKVGFVHRAGSVLERELDDVLEALEMYRSALAIDPSHKPSLDALTRISQLADYREQAAEILEPLPR,-0.576
9,HMPQLEDLEPLDSSGMVRRDGPHLVLAVGRHRGRHLEEVRDSDPSYLHWLLSPKGIEDIQAKEDIKTYLNL,0.0519
10,HMESDRVAHVVAPGETLFSISGKYGIGMGELVAANPVLESRPPRTGDTLLIRLPENPLPAETDAETLS,0.121
11,HMEGYLYLSESQNELILKNLKTPLKYNLYNASGKLIKKGNIKNTLDISELPKGVYIFTSSDNSFSKKFLKT,-0.0444
12,HMRMTKQRQAVLDELTRVTDFRSAQQIFEDLHSQGHRVGLATIYRSLQGLAEDGSVDTLRSSDGESLY,-0.0884
13,HMIILDASASRAIGNGTIEETKWDFGNGESSTNRGGPIVERQIYANQAAYILKLSMKTNDGQLFTKEIQLL,-0.0666
14,HMRTGLSGMIGEIGIVKQAIDPEGKVAVHGELWKARADVALAAGQTVRVVAVDGLTMTVEATDSK,-0.0264
15,HMHMIDDYLARIGQLIRDARQHRGWTQVQLAEALGTSQSAVNRIERGNQNISLEMIARIGEALGSEIVSLG,-1.62
16,HMSGKWKIRILWYIAEYEVQRFGELRRRLGDITQSTLTEQLRELEQDGFVSRYVYQEVPSKVEYSLTE,0.143
17,HMGEKTVPNVIGQKLATAKQLLEKEGLTVGSTSYNKNQADKDTVLSTDPAPGSHLSEGAKVNLTLSSGA,0.261
18,HMEDSEYDRLLAEIDEGIRKAIETLEPVELSPQNARVRRIQHQIIEKYQLHSDSVGEEPYRRVRIL,-0.593
19,HMDDFVEIDGKKYEIDMSFDNILRLFDLLKDKSLNDVTKIETGLIMLIDDSLDDYDTEEKADIFVQIF,-0.0316
20,HMSEFLTIVRAVYSGLSRRKVAAMHKVSRNTVSLYLRQARDQGWLTLEDLEKLDDLTVSQGVS,-2
21,HMIGRIKGQLIEKKSDSVVIDVHGIGYVVYVTEKTARSLTLGDQSRDISLYSELLVKEDLLQLVGFI,0.0137
22,HMDLIEVLAQDTIKKIYNTYVAYKNKVDVFYVAFSGGKDSIVTLDLVQRTLPHNEFKVLFGDTGM,0.133
23,HMGSIMIIVLKENAPQQAAEKLMKEIRAKGLQIDVSKGTRKTVLGLVGDTSVIDMEHVQGYDYVDKVLRV,0.0715
24,HMDKLSYALGLSMGHNFLGSGIKSLNVEDFAKGVEAVYKQEKPEISFDEAKKIINEFFSNLQDEIAE,-0.628
25,HMTAEASELRERIRAAMATLPPAQQRVIELAYFEGLTQREIAALLNEPLGTIKTRMRLGMRKLKDVL,-0.747
26,HMSKTQYTFREVGSQFELHAPSTNHKIMVDANHPKYGWLSSQEAGRVINVYESGKMTSSQDYYGLYKQS,-0.0727

row,Sequence,soluble fraction (log2)
1,HMNLPTSGVDALTPAERRVARMAGDGQSNREIAQTLFVTRKTVEIHLTSVYRKLGIASRAELSARL,-2.6
2,HMLTAPMPGIVRQVNVDTGQKVRKGQPLMVLEAMKMEHQIIAPQAGKIEAIHYNEGDRVEMGSVLISIF,-0.0961
3,HMKDLSMPDVMGSSLNDAKKALTELGIMDITVRYVESGSSEGSIVGMEPPAGSKFAADGKVVLQVSSGS,0.351
4,HMVTKQKKLVLTIIERSHGHLSAEEIFFRAREEMPNIALGTVYRNLNSLTEEGIVRRITLPGTSDRFDT,-2.79
5,HMVAVSQEEATKMALERVSGASAQDIRIQLEFDDGIQKYEGDIIYNGREYEFEIDANTGTFLEWSEERA,-0.489
6,HMRDGYEKPTEVGEGGRNPAMLSYIGHLRAKGHLSEEDIRSMAHGFNATTFDPPLDRDEVDGLVSRY,0.124
7,HMSSQGQNTKTGTVTASALYVRSGAGTNYSQIGYLLKNTKVEIVGQTGSWYKIKFGSGTGYVSSKYIK,-0.652
8,HMLVPWKSANLFKLVEPNFRLAERKIPMLPSADREKLQEIMSDMKDAIVDNDKMALMKLDEELTDFLFDFV,-1.22
9,HMEMGNKIKELRTKLGITQEELSKTLNVSSQAVSKWENGGLPDLELIPEIAKYFNVTTDYLFDIK,0.0658
10,HMVYNGYYAKSFNGYVVILNGDEKTVYEYTQIPIHLLPEDIRSSVMSGYYLENETDLYNFLENYS,-0.822
11,HMVSQELIMLGNRIREYRKERGFSQEILAEKSGVSTNTISRIEGGQMAMSVGILQRIVKALGVDANVMLG,-0.332
12,HMRRSLIGPTVRERRRALGITQSRLAAEVGISASYLNLIEGDKRNIGGALLQRIAGALGLALD,-2.74
13,HMHMSKKLADSISALRKKNGLSQEQLAEKIGISRQTVSNWERGIATPDVETLNLISKLFDEDLSVMING,0.199
14,HMGNTTEVLVATQDVKANTKIKESMFTTERVDTASLPDNYLSADSAKDVVGYYTYIGFTKGSVISKSNIAT,0.0925
15,HMDPTVTFIVQVNGRVRDKITLSSDISENEAKNVALESPKITPHISGKSLSRVIFVPGKLINLVV,-0.578
16,HMRPRQDRSEETRDRILDAVVELIAERGLAGVSHRAVADRAGVSLSATSYYFGSKAELERAALEEHYRR,-0.709
17,HMPRVSIEKIKKVVELLKHNPDYTYSKIGNIVGIGRKTVSGINNGKLYTDLVEELGINEFPI,-0.292
18,HMRAAKSEDTRTRLIEGGMALFGQKGYNATGIKDITDAAGVPKGSFYNYFASKEDFGAEIIHSY,0.122
19,HMIDAAHLEKAILSLPEGARAVFVLIETEGFAHREVAELLGISEGTSKSQLNYAKKRLREILV,-0.311
20,HMINVLTPKQIEATTIAVKYGYYENPRTVSMRELSEISGIARSTLQEHLSKAEAALMILAAKSQL,-0.338
21,HMEAYLPVTVVSDGKILTGNLEKAGKNEKWLENVLSELKTDVKNTLLLTVDPKDGLIFYPKG,0.0932
22,HMRNQIRAVITPVPNQERYTVEMTIDDDAGNLLTLQMAAPDRQQAAEFAQRFQKHPEALYHAVLSVLL,0.0702
23,HMHMELHEKIRLARELNKWSQEEVAEKLEMSPSGYAKIERGETALNIPRLEQIAEIFNIDIWELVKA,-0.573
24,HMGDITALMPGKVIQIIVKEGQEIKVGDPLIVIESMKMENTISSEVNGTIKSINIQIDDNVQFDQVLFTV,-2.1
25,HMNTEVDKVLLRSGEAYFGEVLLRNDELVMMKTQDGARFQFPVSEIKSIEKVSVADALRHINS,0.0758
26,HMDTITMAGERYAVSDLEKVSGDIFEKAFGFEIDPKTADAKDVLPTMPKSDVDLFKKLSGIKP,0.19

row,Sequence,soluble fraction (log2)
1,HMKLIPLTDMRGQLRSGAPLPWGVRDAQGNLLLGKGHVIASDDMLEALLARGMFVDAEEAKAARG,0.00271
2,HMPVEHVWHIAENGQTSGPYSKARMGRMAQEGQLTRDTHVWTPGQDGWMRAGDVTELAQLFT,0.0486
3,HMDPRTSSLTPQERKVLELVGGGLTNRQIAAEMFLAEKTVKNYVSSLLAKLGFERRTQAAVFIASPAF,-0.541
4,HMINDKLQHLFSLFPAMDKELKRKGITRQILWVEYKKQYPLGFGRSQFNSYFAAWKAQVSPS,-1.52
5,HMTGDISRALDQLPADMRTVLILYALEKQRYEDIAQITGVSVGTVKSRLNRARQKLAAILANQREQNE,-0.488
6,HMGIIVDMSKIKQMLQLSEAGHSNRKIALELGINKETVNNYMQLIRNGRLDIRQLLKMDDPELERRFHA,-0.329
7,HMLPGERFKVKIAQAGKEKKQGIGYLNDGTMVVIENGIEKVGEEVEAVVIKVIQSSAGKIIFSEVAK,0.195
8,HMESIAEIDRMNAKIFMDEFQDSLSIMQKTTNPETFFSRYDLAMERLDNMVELQQKGIKFTSDLSSLKAQ,0.0074
9,HMTVAQEIEARRATIRSSDPAEMARFIRWLIMEGHTEPAADELKKYAENFPEASATTKQLQALLAAR,-0.177
10,HMDTQKYDLNDDGRFDVQDVTYLQIKIAGDGELTDNQKKIADYNNDGKIDVQDVTSAQMLIS,-0.0732
11,HMGTLSLLVQKLMAVGLEGAKASEIVERFDRERIERQINALPSRKIKSSRTGFLIRAIELDIPVE,-2.09
12,HMDENDPYEILEIDRLASDDQVKAKYRALIRENHPDVLMAKGVPQEFIDLANRKMAVINAAYDRIEKEREF,-0.0184
13,HMYNNGYVNSDRVNFRKGASTNSDIYKVLDKNTSVTILDYEGDWSKVKINDTVGYVYTKYITAG,0.134
14,HMKLARGEFEIMAKFIKEISGISLEQNKTYLIESRLSDLAESEGVKTFSDFFFKAKFNKILKEKIIDAI,-0.946
15,HMAQLSDDEQAIIDTITRRGDATMSELIASVNVSTPRLMSMLIDMEFRSLITALPGGRYQIRLIN,-0.912
16,HMSHQIIIVAVELDPSTERIVYYLSKNGISINVLFFKVFQHGDEQFLSRVWLIDPSETQTNAALA,-0.466
17,HMKDANIQIGKRLREARLNMNLEKSEIADVLGVTVEHYRKLEAGVMGISVDKVLTLYHKYGIDPTYLITG,-1.19
18,HMRLIALPSVTDISIRQAEATLMSIGIKVSSIQYAPSEYKDLVLEVKYRGQSIIQGAKIPEGSSVVLVAGN,-1.56
19,HMPLITLSAEIQSEQIGQRLDQTLAELFPEYSRSRLKTWIEADLVKLNNQIVNIPREKVLGGEHVEITVDI,-0.611
20,HMAKIDSRKALIDQLTTTFTRAQLEELITKNELSTDARFFLSQWNAKGWIRKTAKNVYEKLR,-0.134
21,HMEDKFEYQGERKSLIYPTSFSELTEALGVRNMLQSIIDFATRDEDTSGYEEMKERQNEYIQEYL,0.0302
22,HMKRITKKQLSQQLEQFFSSQPGKKLTLKDIFRALHLDTHPLKMLAMDIMEEMAWDDFITKKGENAYQLNT,-0.729
23,HMSNVIYFNYNDYKFLFMGDAGVDKETDILEKYTLSNIDFLKVGHHGSDTSSNKGFIDSIQPKYSLIS,-1.07
24,HMSVPSVAAVREQTGLSQVKFASLLGVSVRTLQEWEQGRRAPSGAARTLLMVAAKNPQALLEV,-0.584
